Data from PMC7195389, “Inter-domain dynamics in the chaperone SurA and multi-site binding to its outer membrane protein clients” (Nature Communications, 2020).
Residue numbers refer to the chain shown, from its start. Numbers in names are those of the source. Blank lines part the entries; values can stand above or below the binder they belong to.

Assays:
Settings in all cases: both partners purified
[1] = biological target: T1, SurA Q85C-E301C labelled with Alexa Fluor 488 and Alexa Fluor 594 (E. coli, UniProt P0ABZ6 21-428, Q85C | E301C, Alexa Fluor 488 C5 maleimide and Alexa Fluor 594 C5 maleimide, stochastically, on Cys 85 and Cys 301); assay: FRET or BRET; intramolecular smFRET (ALEX) of ~50 pM doubly labelled SurA variant with 1.5 µM WEYIPNV, 50 mM Tris-HCl pH 8.0, 25 °C; change of the inter-domain E_FRET distribution against apo-SurA
T1 construct: gene numbering with the signal peptide; also called core-P2 SurA variant; SurA core-P2; source: E. coli BL21(DE3), purified as wild type with 10 mM DTT; labelled with Alexa Fluor maleimides, SEC; not shown: His6, N-terminal, cleaved
T1 sequence (looked up): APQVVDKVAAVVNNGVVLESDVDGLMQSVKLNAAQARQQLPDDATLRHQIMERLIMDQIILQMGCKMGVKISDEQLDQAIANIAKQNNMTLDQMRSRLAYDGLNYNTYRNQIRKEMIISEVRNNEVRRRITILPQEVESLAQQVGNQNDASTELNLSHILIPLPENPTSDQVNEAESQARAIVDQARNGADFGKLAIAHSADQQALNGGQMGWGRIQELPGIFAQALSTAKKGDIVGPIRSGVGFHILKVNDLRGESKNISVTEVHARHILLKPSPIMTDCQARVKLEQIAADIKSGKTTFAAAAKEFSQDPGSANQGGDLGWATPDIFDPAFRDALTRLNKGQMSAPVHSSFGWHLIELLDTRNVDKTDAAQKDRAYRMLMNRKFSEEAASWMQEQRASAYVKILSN

[2] = biological target: T2, SurA Q85C-N193C labelled with Alexa Fluor 488 and Alexa Fluor 594 (E. coli, UniProt P0ABZ6 21-428, Q85C | N193C, Alexa Fluor 488 C5 maleimide and Alexa Fluor 594 C5 maleimide, stochastically, on Cys 85 and Cys 193); assay: as above
T2 construct: gene numbering with the signal peptide; also called core-P1 SurA variant; SurA core-P1; source: E. coli BL21(DE3), purified as wild type with 10 mM DTT; labelled with Alexa Fluor maleimides, SEC; not shown: His6, N-terminal, cleaved
T2 sequence (looked up): T1 sequence (looked up) with N173C, C281E

[3] = biological target: T3, SurA (E. coli periplasmic chaperone, wild type, mature sequence) (E. coli, UniProt P0ABZ6 21-428); assay: HDX-MS; differential HDX of 8 µM SurA without and with 110 µM WEYIPNV, 10 mM potassium phosphate pH 8.0, 4 °C, 0.5-120 min
T3 construct: numbering is the gene numbering with the signal peptide; also called SurA WT; apo-SurA; source: E. coli BL21(DE3), purified (HisTrap, denatured on-column with 6 M Gdn-HCl, TEV cleavage, second HisTrap); not shown: His6, N-terminal, cleaved
T3 sequence (looked up): T1 sequence (looked up) with C65Q, C281E

[4] = biological target: T3, SurA (E. coli periplasmic chaperone, …); assay: MST; 50 nM Alexa Fluor 488-labelled Cys-OmpX, SurA titrated 100 µM-3 nM, 0.24 M urea, 50 mM Tris-HCl pH 8.0; fitted to the Hill equation; apparent
[5] = biological target: T3, SurA (E. coli periplasmic chaperone, …); assay: cross-linking; DSBU, 5 µM SurA, 5 µM OmpX, 0.24 M urea, 10 mM potassium phosphate pH 8.0, 45 min, room temperature; SDS-PAGE band, in-gel digestion, LC-MS/MS
[6] = biological target: T2, SurA Q85C-N193C labelled with Alexa …; assay: FRET or BRET; intramolecular smFRET (ALEX) of ~50 pM doubly labelled SurA variant with 1.5 µM OmpX or OmpF, 50 mM Tris-HCl pH 8.0, 0.24 M urea, 25 °C; change of the inter-domain E_FRET distribution against apo-SurA
[7] = biological target: T3, SurA (E. coli periplasmic chaperone, …); assay: cross-linking; tag-transfer photo-cross-linking: 10 µM SurA, 5 µM MTS-diazirine-labelled OmpX Cys variant, 0.24 M urea, 10 mM potassium phosphate pH 8.0, UV LED 30 s; SDS-PAGE, LC-MS/MS
[8] = biological target: T3, SurA (E. coli periplasmic chaperone, …); assay: HDX-MS; differential HDX of 8 µM SurA without and with 8 µM OmpX or OmpF, 10 mM potassium phosphate pH 8.0, 0.24 M urea, 4 °C, 0.5-120 min

B1: WEYIPNV peptide (peptide)
peptide: WEYIPNV
binding result [1]: binds | binding result [2]: binds | binding result [3]: binds

B2: Cys-OmpX labelled with Alexa Fluor 488 (natural protein, E. coli)
chain: MGSCATSTVTGGYAQSDAQGQMNKMGGFNLKYRYEEDNSPLGVIGSFTYTEKSRTASSGDYNKNQYYGITAGPAYRINDWASIYGVVGVGYGKFQTTEYPTYKHDTSDYGFSYGAGLQFNPMENVALDFSYEQSRIRSVDVGTWIAGVGYRF
modifications: Alexa Fluor 488 C5 maleimide on the added Cys
notes: N-terminal Met followed by the added residues Gly-Ser-Cys (named in words); also called labelled Cys-OmpX; source: E. coli BL21[DE3], inclusion bodies, purified; labelled with Alexa Fluor 488 C5 maleimide
Kd [4]: ~800 nM

B4: OmpX M41C labelled with MTS-diazirine (natural protein, E. coli)
chain: MATSTVTGGYAQSDAQGQCNKMGGFNLKYRYEEDNSPLGVIGSFTYTEKSRTASSGDYNKNQYYGITAGPAYRINDWASIYGVVGVGYGKFQTTEYPTYKHDTSDYGFSYGAGLQFNPMENVALDFSYEQSRIRSVDVGTWIAGVGYRF
modifications: MTS-diazirine on Cys 41
notes: N-terminal Met residue of the OmpX construct (named in words); source: purified, conjugated with MTS-diazirine in 6 M guanidine-HCl
binding result [7]: binds

B5: OmpX I102C labelled with MTS-diazirine (natural protein, E. coli)
chain: B4 chain with C19M, I80C
modifications: MTS-diazirine on Cys 102
notes: as for B4
binding result [7]: binds

B7: OmpF (E. coli outer membrane protein F, mature sequence, unfolded) (natural protein, UniProt P02931 23-362, looked up)
chain: AEIYNKDGNKVDLYGKAVGLHYFSKGNGENSYGGNGDMTYARLGFKGETQINSDLTGYGQWEYNFQGNNSEGADAQTGNKTRLAFAGLKYADVGSFDYGRNYGVVYDALGYTDMLPEFGGDTAYSDDFFVGRVGGVATYRNSNFFGLVDGLNFAVQYLGKNERDTARRSNGDGVGGSISYEYEGFGIVGAYGAADRTNLQEAQPLGNGKKAEQWATGLKYDANNIYLAANYGETRNATPITNKFTNTSGFANKTQDVLLVAQYQFDFGLRPSIAYTKSKAKDVEGIGDVDLVNYFEVGATYYFNKNMSTYVDYIINQIDSDNKLGVGSDDTVAVGIVYQF
notes: source: E. coli BL21[DE3], inclusion bodies, purified (gel filtration in 6 M Gdn-HCl); urea-denatured and diluted into the assay
binding result [8]: binds | binding result [6]: binds

B8: OmpX V167C labelled with MTS-diazirine (natural protein, E. coli)
chain: B4 chain with C19M, V145C
modifications: MTS-diazirine on Cys 167
notes: as for B4
binding result [7]: binds

The next lines start with the values.

binding result [5]: binds | binding result [6]: binds
B3: OmpX (E. coli outer membrane protein X, mature sequence, unfolded) (natural protein)
chain: B4 chain with C19M
notes: N-terminal Met residue of the construct (named in words); Unfolded client in 0.24 M urea; source: E. coli BL21[DE3], inclusion bodies, purified (gel filtration in 6 M Gdn-HCl); urea-denatured and diluted into the assay

binding result [7]: binds
B6: OmpX K122C labelled with MTS-diazirine (natural protein, E. coli)
chain: B4 chain with C19M, K100C
modifications: MTS-diazirine on Cys 122
notes: as for B4
